# Assay results published in paper doi:10.1101/2021.07.07.451439.
# Legend:
# TCEAL4 = TCEAL4 (UniProt Q96EI5); assay: GFP-NanoTrap IP, blot of lower MW TCEAL4; conditions: reference: wild type GFP-USP7; sites S18
# TRIM27 = TRIM27 (UniProt P14373); assay: GFP-NanoTrap IP of GFP-USP7, immunoblot; conditions: reference: wild type GFP-USP7; sites S18
substance,measurement,setting,value
USP7 (from UniProt Q93009) S18A,binding against the reference,TCEAL4,stronger
same,binding against the reference,TRIM27,stronger
